These results are taken from publication PMC12147176, “Unstructured protein domains stabilize RNA binding and mediate RNA folding by AUF1”.

The target of series [1] is T1, His6-p37AUF1 wt (human, UniProt Q14103-4 1-287). The series can be described thus: fluorescence anisotropy; Anisotropy: 10 mM Tris-HCl pH 8.0, 100 mM KCl (50 mM for Fl-ARE2), 0.5 mM EDTA, 0.1 ug/ul acetylated BSA, 1 ug/ul heparin, 2 mM DTT, 25 C, RNA 0.2-0.4 nM; EMSA: same with 100 mM KCl, 10% glycerol, 1 nM RNA, on ice, UV crosslinked. To be noted: protein: recombinant, chain copies: 2; for Kd: label: 3' fluorescein.

Series [2] concerns the target T2, His6-p37AUF1(78-239) (human, UniProt Q14103-4 78-239). The series is described as above. To be noted: protein: recombinant; for Kd: label: 3' fluorescein.
In series [3] the target is T1, His6-p37AUF1 wt. The series can be described thus: EMSA (UV-crosslinked); Anisotropy: 10 mM Tris-HCl pH 8.0, 100 mM KCl (50 mM for Fl-ARE2), 0.5 mM EDTA, 0.1 ug/ul acetylated BSA, 1 ug/ul heparin, 2 mM DTT, 25 C, RNA 0.2-0.4 nM; EMSA: same with 100 mM KCl, 10% glycerol, 1 nM RNA, on ice, UV crosslinked. To be noted: protein: recombinant; chain copies: 2; label: biotin. Background: A gel shift assay detects complexes by their altered migration in electrophoresis.

Series [4] concerns the target T2, His6-p37AUF1(78-239). The description is as above. To be noted: protein: recombinant; label: biotin.
In series [5] the target is T3, His6-p37AUF1(1-239) (human, UniProt Q14103-4 1-239). The series can be described thus: fluorescence anisotropy; first site (Kd1), 50 mM KCl; Anisotropy: 10 mM Tris-HCl pH 8.0, 100 mM KCl (50 mM for Fl-ARE2), 0.5 mM EDTA, 0.1 ug/ul acetylated BSA, 1 ug/ul heparin, 2 mM DTT, 25 C, RNA 0.2-0.4 nM; EMSA: same with 100 mM KCl, 10% glycerol, 1 nM RNA, on ice, UV crosslinked. The conditions noted are these: protein: recombinant; chain copies: 2; label: 5' fluorescein.

For series [6], the target named is T1, His6-p37AUF1 wt. Described as above. The conditions noted are these: protein: recombinant; chain copies: 2; label: 5' fluorescein.
The target in series [7] is T2, His6-p37AUF1(78-239). The description is as above. To be noted: protein: recombinant; label: 5' fluorescein.
The target in series [8] is T3, His6-p37AUF1(1-239). The series can be described thus: fluorescence anisotropy; Anisotropy: 10 mM Tris-HCl pH 8.0, 100 mM KCl (50 mM for Fl-ARE2), 0.5 mM EDTA, 0.1 ug/ul acetylated BSA, 1 ug/ul heparin, 2 mM DTT, 25 C, RNA 0.2-0.4 nM; EMSA: same with 100 mM KCl, 10% glycerol, 1 nM RNA, on ice, UV crosslinked. To be noted: protein: recombinant; chain copies: 2; label: 3' fluorescein. In general terms: In fluorescence polarisation assays a small probe gives low polarisation when free and higher when bound to something large.

Series [9] has as its target His6-p37AUF1(69-239) (human, UniProt Q14103-4 69-239). The series is described as above. To be noted: protein: recombinant; label: 3' fluorescein.
The target of series [10] is His6-p37AUF1(69-287) (human, UniProt Q14103-4 69-287). The description is as above. To be noted: protein: recombinant; label: 3' fluorescein.
In series [11] the target is His6-p37AUF1(78-287) (human, UniProt Q14103-4 78-287). Described as above. The conditions noted are these: protein: recombinant; chain copies: 2; label: 3' fluorescein.
Series [12] concerns the target His6-p37AUF1(30-287) (human, UniProt Q14103-4 30-287). The series is described as above. To be noted: protein: recombinant; chain copies: 2; label: 3' fluorescein.
For series [13], the target named is His6-p37AUF1 W250F (human, UniProt Q14103-4 1-287, W250F). Described as above. The conditions noted are these: protein: recombinant; tags: N-term His6; chain copies: 2; label: 3' fluorescein.
Series [14] concerns the target His6-p37AUF1(Δ69-77) (human, UniProt Q14103-4 1-287, del69-77). The series is described as above. The conditions noted are these: protein: recombinant; chain copies: 2; label: 3' fluorescein.
The target of series [15] is p37AUF1 (EK-cleaved) (human, UniProt Q14103-4 1-287). The series is described as above. To be noted: protein: recombinant; tags: His6 removed by enterokinase; chain copies: 2; label: 3' fluorescein.
Series [16] deals with T4, His6-p37AUF1 W87F (human, UniProt Q14103-4 1-287, W87F). Put plainly: Trp fluorescence and iodide quenching; 2 uM each; KSV 0.60 vs 6.59 M-1 without RNA; saturates near 1:1; Anisotropy: 10 mM Tris-HCl pH 8.0, 100 mM KCl (50 mM for Fl-ARE2), 0.5 mM EDTA, 0.1 ug/ul acetylated BSA, 1 ug/ul heparin, 2 mM DTT, 25 C, RNA 0.2-0.4 nM; EMSA: same with 100 mM KCl, 10% glycerol, 1 nM RNA, on ice, UV crosslinked. To be noted: protein: recombinant; tags: N-term His6; chain copies: 2.

In series [17] the target is T4, His6-p37AUF1 W87F. The series can be described thus: Trp fluorescence and iodide quenching; 2 uM each; KSV 3.88 M-1; Anisotropy: 10 mM Tris-HCl pH 8.0, 100 mM KCl (50 mM for Fl-ARE2), 0.5 mM EDTA, 0.1 ug/ul acetylated BSA, 1 ug/ul heparin, 2 mM DTT, 25 C, RNA 0.2-0.4 nM; EMSA: same with 100 mM KCl, 10% glycerol, 1 nM RNA, on ice, UV crosslinked. To be noted: protein: recombinant; tags: N-term His6; chain copies: 2.

Broadly, the Kd is the equilibrium constant for the complex coming apart.

T3 sequence (Q14103 other isoform, or with tags, fused parts or gaps): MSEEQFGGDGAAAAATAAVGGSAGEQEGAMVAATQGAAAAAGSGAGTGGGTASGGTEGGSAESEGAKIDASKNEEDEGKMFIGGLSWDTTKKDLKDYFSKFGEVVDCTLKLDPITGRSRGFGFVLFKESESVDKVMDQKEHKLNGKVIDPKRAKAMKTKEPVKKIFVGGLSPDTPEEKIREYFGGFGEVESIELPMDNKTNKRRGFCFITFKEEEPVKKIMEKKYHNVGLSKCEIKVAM
T2 sequence (Q14103 other isoform, or with tags, fused parts or gaps): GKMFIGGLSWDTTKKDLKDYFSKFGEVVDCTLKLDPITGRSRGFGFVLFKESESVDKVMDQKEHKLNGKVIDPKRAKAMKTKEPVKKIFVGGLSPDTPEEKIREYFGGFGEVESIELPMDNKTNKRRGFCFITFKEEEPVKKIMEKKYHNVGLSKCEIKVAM
T1 sequence (Q14103 other isoform, or with tags, fused parts or gaps): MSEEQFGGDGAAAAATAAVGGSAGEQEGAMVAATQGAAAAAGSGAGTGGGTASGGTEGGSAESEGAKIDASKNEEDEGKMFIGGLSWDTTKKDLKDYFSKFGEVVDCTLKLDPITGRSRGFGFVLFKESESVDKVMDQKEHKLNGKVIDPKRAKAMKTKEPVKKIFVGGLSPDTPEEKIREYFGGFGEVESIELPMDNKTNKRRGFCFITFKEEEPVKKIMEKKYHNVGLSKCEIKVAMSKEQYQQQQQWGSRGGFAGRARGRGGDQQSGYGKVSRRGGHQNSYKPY
T4 sequence (Q14103 other isoform, or with tags, fused parts or gaps W87F | W87F W87F): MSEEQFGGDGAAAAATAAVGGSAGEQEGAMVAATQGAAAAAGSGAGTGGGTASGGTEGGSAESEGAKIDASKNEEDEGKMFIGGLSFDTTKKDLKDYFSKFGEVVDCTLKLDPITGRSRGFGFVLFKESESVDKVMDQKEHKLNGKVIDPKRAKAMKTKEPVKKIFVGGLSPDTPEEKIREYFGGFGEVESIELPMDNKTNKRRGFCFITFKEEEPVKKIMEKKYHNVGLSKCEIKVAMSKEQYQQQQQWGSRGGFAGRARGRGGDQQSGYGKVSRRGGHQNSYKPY
Sequence of His6-p37AUF1(69-239) (Q14103 other isoform, or with tags, fused parts or gaps): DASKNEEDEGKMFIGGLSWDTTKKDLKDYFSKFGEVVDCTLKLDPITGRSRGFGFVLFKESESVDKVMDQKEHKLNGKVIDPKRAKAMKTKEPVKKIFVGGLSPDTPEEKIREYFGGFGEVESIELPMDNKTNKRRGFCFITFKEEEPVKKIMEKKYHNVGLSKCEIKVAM
Sequence of His6-p37AUF1(30-287) (Q14103 other isoform, or with tags, fused parts or gaps): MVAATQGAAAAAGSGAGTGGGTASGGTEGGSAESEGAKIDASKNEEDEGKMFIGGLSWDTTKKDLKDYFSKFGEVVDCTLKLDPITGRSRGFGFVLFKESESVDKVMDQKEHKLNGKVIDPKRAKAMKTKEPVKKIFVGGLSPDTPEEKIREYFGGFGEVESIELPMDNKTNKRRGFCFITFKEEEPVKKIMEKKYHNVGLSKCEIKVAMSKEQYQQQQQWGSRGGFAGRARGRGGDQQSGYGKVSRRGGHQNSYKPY
Sequence of His6-p37AUF1(Δ69-77) (Q14103 other isoform, or with tags, fused parts or gaps del69-77 | mutant): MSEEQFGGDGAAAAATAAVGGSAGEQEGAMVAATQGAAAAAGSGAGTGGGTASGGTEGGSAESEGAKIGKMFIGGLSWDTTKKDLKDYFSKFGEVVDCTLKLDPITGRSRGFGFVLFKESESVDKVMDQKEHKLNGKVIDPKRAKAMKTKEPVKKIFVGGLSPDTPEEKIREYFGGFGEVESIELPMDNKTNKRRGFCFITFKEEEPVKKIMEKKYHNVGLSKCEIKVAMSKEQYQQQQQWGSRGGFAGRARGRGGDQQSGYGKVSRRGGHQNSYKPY
Sequence of His6-p37AUF1 W250F (Q14103 other isoform, or with tags, fused parts or gaps W250F | W250F W250F): as the sequence (Q14103 other isoform, or with tags, fused parts or gaps W87F | W87F W87F) above, with F87W, W250F counted along it
Sequence of His6-p37AUF1(69-287) (Q14103 other isoform, or with tags, fused parts or gaps): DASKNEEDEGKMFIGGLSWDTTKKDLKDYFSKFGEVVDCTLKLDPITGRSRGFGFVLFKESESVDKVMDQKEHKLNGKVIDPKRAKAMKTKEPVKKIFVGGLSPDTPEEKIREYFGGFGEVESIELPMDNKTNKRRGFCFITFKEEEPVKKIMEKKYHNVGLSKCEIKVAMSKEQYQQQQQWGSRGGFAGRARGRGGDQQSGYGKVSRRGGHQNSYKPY
Sequence of p37AUF1 (EK-cleaved) (Q14103 other isoform, or with tags, fused parts or gaps): as the sequence (Q14103 other isoform, or with tags, fused parts or gaps W87F | W87F W87F) above, with F87W counted along it
Sequence of His6-p37AUF1(78-287) (Q14103 other isoform, or with tags, fused parts or gaps): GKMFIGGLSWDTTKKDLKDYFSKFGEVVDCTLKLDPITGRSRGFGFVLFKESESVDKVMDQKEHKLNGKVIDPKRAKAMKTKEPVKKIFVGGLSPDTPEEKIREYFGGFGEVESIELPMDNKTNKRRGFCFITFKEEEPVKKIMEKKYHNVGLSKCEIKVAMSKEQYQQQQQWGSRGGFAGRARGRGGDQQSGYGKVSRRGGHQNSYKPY

Turning to UGGCCAAUGCCCUGGCUCACAAAUACCACUG (ssRNA) [Fl-Rβ], the binding result in series [1] (label: 5' fluorescein) and in series [2] (label: 5' fluorescein) was “no binding” throughout.
As for UGGCCAAUGCCCUGGCUCACAAAUACCACUG (ssRNA) [B-Rβ], the binding result in [3] and in [4] was “no binding” throughout.
In the case of GUGAUUAUUUAUUAUUUAUUUAUUAUUUAUUUAUUUAG (ssRNA) [Fl-ARE2], the Kd is 156 ± 7 nM in series [5], 16 ± 3 nM in series [6] and 853 ± 48 nM in series [7].
As for UUAUUUAUUUAUUUAG (ssRNA) [ARE15-G-Fl], the Kd in series [8] is 176 ± 9 nM; in series [1], 110 ± 5 nM; in [2] it was 796 ± 103 nM; in series [9] it was 933 ± 90 nM; in series [10] it was 467 ± 33 nM; in series [11], 1090 ± 69 nM.
With CCCCUGGCUCACAAAUACCUUAUUUAUUUAUUUAG (ssRNA) [ARE1-Fl], the Kd turned out to be 27 ± 1.4 nM in series [12]; 22 ± 2 nM in [13]; 89 ± 11 nM in [14]; 101 ± 8 nM in [8]; 19 ± 3 nM in [1]; 505 ± 34 nM in series [2]. Also, the Kd in series [9] worked out at 527 ± 54 nM; in series [15] it was 15 ± 2 nM.
Regarding CCCCUGGCUCACAAAUACCUUAUUUAUUUAUUUAG (ssRNA) [ARE1 (unlabeled)], the binding result in series [16] is on record as “binds”.
For UUAUUUAUUUAUUUAG (ssRNA) [ARE15-G (unlabeled)], the binding result in series [17] is on record as “binds”.
